Patent US9802997B2, “Peptides and combination of peptides for use in immunotherapy against various tumors” (immatics biotechnologies GmbH, priority 2015, dated 2017)

Each substance was assayed against HLA-A*02:01 (Homo sapiens, UniProt P04439, D140Y/D185E/D98H/E176V/E277Q/G131W/G231S/I119V/I121R/I166T/I218V/L300P/L318F/N151K/N90K/P208A/P217A/Q86G/Q94H/R138H/R169H/T345S) (assay: MHC binding assay (UV-ligand exchange, beta2m ELISA)). Settings: binding to HLA-A*02:01, β2m ELISA.
From the text: Candidate peptides for T cell based therapies according to the present invention were further tested for their MHC binding capacity (affinity). The individual peptide-MHC complexes were produced by UV-ligand exchange, where a UV-sensitive peptide is cleaved upon UV-irradiation, and exchanged with the peptide of interest as analyzed. Only peptide candidates that can effectively bind and stabilize the peptide-receptive MHC molecules prevent dissociation of the MHC complexes. To determine the yield of the exchange reaction, an ELISA was performed based on the detection of the light chain (β2m) of stabilized MHC complexes. The assay was performed as generally described in Rodenko et al. (Rodenko et al., 2006).
96 well MAXISorp plates (NUNC) were coated over night with 2 ug/ml streptavidin in PBS at room temperature, washed 4× and blocked for 1 h at 37° C. in 2% BSA containing blocking buffer. Refolded HLA-A*02:01/MLA-001 monomers served as standards, covering the range of 15-500 ng/ml. Peptide-MHC monomers of the UV-exchange reaction were diluted 100 fold in blocking buffer. Samples were incubated for 1 h at 37° C., washed four times, incubated with 2 ug/ml HRP conjugated anti-β2m for 1 h at 37° C., washed again and detected with TMB solution that is stopped with […]. Absorption was measured at 450 nm. Candidate peptides that show a high exchange yield (preferably higher than 50%, most preferred higher than 75%) are generally preferred for a generation and production of antibodies or fragments thereof, and/or T cell receptors or fragments thereof, as they show sufficient avidity to the MHC molecules and prevent dissociation of the MHC complexes.

| Substance | Peptide exchange (MHC class I binding score, peptide exchange yield) |
| --- | --- |
| 5 (GLVDIMVHL; listed as Homo sapiens) [compound 5] | +++ (≧50 = +++) |
| 198 (ILTNKVVSV; listed as Homo sapiens) [compound 198] | ++ (≧20% = ++) |
| 60 (YLFSQGLQGL; listed as Homo sapiens) [compound 60] | +++ (≧50 = +++) |
| 284 (KLMDPGSLPPL; listed as Homo sapiens) [compound 284] | ++ (≧20% = ++) |
| 13 (RLHDENILL; listed as Homo sapiens) [compound 13] | +++ (≧50 = +++) |
| 275 (AVPPPPSSV; listed as Homo sapiens) [compound 275] | ++ (≧20% = ++) |
| 11 (LLDPKTIFL; listed as Homo sapiens) [compound 11] | +++ (≧50 = +++) |
| 180 (RLYEEEIRI; listed as Homo sapiens) [compound 180] | +++ (≧50 = +++) |
| 262 (LLLEAVWHL; listed as Homo sapiens) [compound 262] | +++ (≧50 = +++) |
| 48 (KISDFGLATV; listed as Homo sapiens) [compound 48] | +++ (≧50 = +++) |
| 125 (AALEVLAEV; listed as Homo sapiens) [compound 125] | +++ (≧50 = +++) |
| 169 (ALADLSVAV; listed as Homo sapiens) [compound 169] | +++ (≧50 = +++) |
| 221 (IMLNSVEEI; listed as Homo sapiens) [compound 221] | ++ (≧20% = ++) |
| 81 (ILAEEPIYI; listed as Homo sapiens) [compound 81] | ++ (≧20% = ++) |
| 163 (GLEERLYTA; listed as Homo sapiens) [compound 163] | ++ (≧20% = ++) |
| 80 (VLTGQVHEL; listed as Homo sapiens) [compound 80] | +++ (≧50 = +++) |
| 51 (LDSEALLTL; listed as Homo sapiens) [compound 51] | ++ (≧20% = ++) |
| 122 (SIIDTELKV; listed as Homo sapiens) [compound 122] | +++ (≧50 = +++) |
| 188 (VLGEEQEGV; listed as Homo sapiens) [compound 188] | ++ (≧20% = ++) |
| 250 (LMQDSRLYL; listed as Homo sapiens) [compound 250] | +++ (≧50 = +++) |
| 220 (ALSELERVL; listed as Homo sapiens) [compound 220] | +++ (≧50 = +++) |

| Substance | Peptide exchange (MHC class I binding score, peptide exchange yield) |
| --- | --- |
| 192 (TLLPSSGLVTL; listed as Homo sapiens) [compound 192] | ++ (≧20% = ++) |
| 143 (MLWESIMRV; listed as Homo sapiens) [compound 143] | +++ (≧50 = +++) |
| 115 (ILHGEVNKV; listed as Homo sapiens) [compound 115] | ++ (≧20% = ++) |
| 234 (VLLNEILEQV; listed as Homo sapiens) [compound 234] | ++++ (≧75% = ++++) |
| 185 (TLYQGLPAEV; listed as Homo sapiens) [compound 185] | ++ (≧20% = ++) |
| 153 (KLVELEHTL; listed as Homo sapiens) [compound 153] | +++ (≧50 = +++) |
| 162 (GLLGNLLTSL; listed as Homo sapiens) [compound 162] | +++ (≧50 = +++) |
| 239 (VIIKGLEEITV; listed as Homo sapiens) [compound 239] | +++ (≧50 = +++) |
| 179 (TLGEIIKGV; listed as Homo sapiens) [compound 179] | +++ (≧50 = +++) |
| 161 (NLLDENVCL; listed as Homo sapiens) [compound 161] | ++++ (≧75% = ++++) |
| 88 (LLLPLELSLA; listed as Homo sapiens) [compound 88] | +++ (≧50 = +++) |
| 12 (RLLDPKTIFL; listed as Homo sapiens) [compound 12] | +++ (≧50 = +++) |
| 114 (LLFPSDVQTL; listed as Homo sapiens) [compound 114] | ++ (≧20% = ++) |
| 194 (KLLEEVQLL; listed as Homo sapiens) [compound 194] | ++ (≧20% = ++) |
| 90 (AILNVDEKNQV; listed as Homo sapiens) [compound 90] | ++ (≧20% = ++) |
| 280 (HLWGHALFL; listed as Homo sapiens) [compound 280] | +++ (≧50 = +++) |
| 270 (TLLTFFHEL; listed as Homo sapiens) [compound 270] | +++ (≧50 = +++) |
| 168 (VIFEGEPMYL; listed as Homo sapiens) [compound 168] | +++ (≧50 = +++) |
| 191 (AAIEIFEKV; listed as Homo sapiens) [compound 191] | +++ (≧50 = +++) |
| 279 (VLMDEGAVLTL; listed as Homo sapiens) [compound 279] | ++ (≧20% = ++) |
| 222 (LLTGVFAQL; listed as Homo sapiens) [compound 222] | ++ (≧20% = ++) |

| Substance | Peptide exchange (MHC class I binding score, peptide exchange yield) |
| --- | --- |
| 103 (YLADTVQKL; listed as Homo sapiens) [compound 103] | ++ (≧20% = ++) |
| 175 (SLLDLVQSL; listed as Homo sapiens) [compound 175] | +++ (≧50 = +++) |
| 219 (GVVPTIQKV; listed as Homo sapiens) [compound 219] | ++ (≧20% = ++) |
| 106 (VLLGSVVIFA; listed as Homo sapiens) [compound 106] | ++ (≧20% = ++) |
| 94 (YLDEVAFML; listed as Homo sapiens) [compound 94] | +++ (≧50 = +++) |
| 178 (SLVSWQLLL; listed as Homo sapiens) [compound 178] | ++++ (≧75% = ++++) |
| 96 (ALDTTRHEL; listed as Homo sapiens) [compound 96] | ++ (≧20% = ++) |
| 182 (GLQDGFQITV; listed as Homo sapiens) [compound 182] | +++ (≧50 = +++) |
| 1 (KLQEKIQEL; listed as Homo sapiens) [compound 1] | ++++ (≧75% = ++++) |
| 83 (GLLENSPHL; listed as Homo sapiens) [compound 83] | ++ (≧20% = ++) |
| 112 (ILAQDVAQL; listed as Homo sapiens) [compound 112] | +++ (≧50 = +++) |
| 40 (KIWEELSVLEV; listed as Homo sapiens) [compound 40] | +++ (≧50 = +++) |
| 42 (KQMSISTGL; listed as Homo sapiens) [compound 42] | ++ (≧20% = ++) |
| 258 (QLVQRVASV; listed as Homo sapiens) [compound 258] | ++ (≧20% = ++) |
| 37 (QIVELIEKI; listed as Homo sapiens) [compound 37] | ++ (≧20% = ++) |
| 251 (LLWGNLPEI; listed as Homo sapiens) [compound 251] | +++ (≧50 = +++) |
| 82 (ILAEEPIYIRV; listed as Homo sapiens) [compound 82] | +++ (≧50 = +++) |
| 183 (ALSYILPYL; listed as Homo sapiens) [compound 183] | +++ (≧50 = +++) |
| 123 (QTAPEEAFIKL; listed as Homo sapiens) [compound 123] | + (≧10% = +) |
| 98 (FVQEKIPEL; listed as Homo sapiens) [compound 98] | +++ (≧50 = +++) |
